From IntAct's records for PubMed 31515488

B1: Filamin-binding LIM protein 1 (Homo sapiens), Q8WUP2 (parent)
chain: MASKPEKRVASSVFITLAPPRRDVAVAEEVRQAVCEARRGRPWEAPAPMKTPEAGLAGRPSPWTTPGRAAATVPAAPMQLFNGGCPPPPPVLDGEDVLPDLDLLPPPPPPPPVLLPSEEEAPAPMGASLIADLEQLHLSPPPPPPQAPAEGPSVQPGPLRPMEEELPPPPAEPVEKGASTDICAFCHKTVSPRELAVEAMKRQYHAQCFTCRTCRRQLAGQSFYQKDGRPLCEPCYQDTLERCGKCGEVVRDHIIRALGQAFHPSCFTCVTCARCIGDESFALGSQNEVYCLDDFYRKFAPVCSICENPIIPRDGKDAFKIECMGRNFHENCYRCEDCRILLSVEPTDQGCYPLNNHLFCKPCHVKRSAAGCC
partner: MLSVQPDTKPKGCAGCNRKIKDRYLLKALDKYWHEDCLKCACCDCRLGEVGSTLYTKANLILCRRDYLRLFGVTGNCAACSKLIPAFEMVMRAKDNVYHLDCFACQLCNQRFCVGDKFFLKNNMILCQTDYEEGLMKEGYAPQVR
B2: Meiotic recombination protein DMC1/LIM15 homolog (Homo sapiens), Q14565 (parent)
chain: MKEDQVVAEEPGFQDEEESLFQDIDLLQKHGINVADIKKLKSVGICTIKGIQMTTRRALCNVKGLSEAKVDKIKEAANKLIEPGFLTAFEYSEKRKMVFHITTGSQEFDKLLGGGIESMAITEAFGEFRTGKTQLSHTLCVTAQLPGAGGYPGGKIIFIDTENTFRPDRLRDIADRFNVDHDAVLDNVLYARAYTSEHQMELLDYVAAKFHEEAGIFKLLIIDSIMALFRVDFSGRGELAERQQKLAQMLSRLQKISEEYNVAVFVTNQMTADPGATMTFQADPKKPIGGHILAHASTTRISLRKGRGELRIAKIYDSPEMPENEATFAITAGGIGDAKE
partner: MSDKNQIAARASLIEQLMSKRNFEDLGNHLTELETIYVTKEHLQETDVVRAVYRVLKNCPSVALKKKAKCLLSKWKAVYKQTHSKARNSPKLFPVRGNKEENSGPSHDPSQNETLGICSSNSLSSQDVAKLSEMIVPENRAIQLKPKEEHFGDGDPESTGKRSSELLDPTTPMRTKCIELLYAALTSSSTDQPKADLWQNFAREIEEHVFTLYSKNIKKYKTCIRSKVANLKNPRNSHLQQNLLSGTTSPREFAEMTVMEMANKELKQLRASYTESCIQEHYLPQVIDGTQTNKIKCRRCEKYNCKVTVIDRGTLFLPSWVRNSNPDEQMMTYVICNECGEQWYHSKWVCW
B3: Notch homolog 2 N-terminal-like protein A (Homo sapiens), Q7Z3S9 (parent)
chain: MCVTYHNGTGYCKCPEGFLGEYCQHRDPCEKNRCQNGGTCVAQAMLGKATCRCASGFTGEDCQYSTSHPCFVSRPCLNGGTCHMLSRDTYECTCQVGFTGKECQWTDACLSHPCANGSTCTTVANQFSCKCLTGFTGQKCETDVNECDIPGHCQHGGTCLNLPGSYQCQCLQGFTGQYCDSLYVPCAPSPCVNGGTCRQTGDFTFECNCLPETVRRGTELWERDREVWNGKEHDEN
partner: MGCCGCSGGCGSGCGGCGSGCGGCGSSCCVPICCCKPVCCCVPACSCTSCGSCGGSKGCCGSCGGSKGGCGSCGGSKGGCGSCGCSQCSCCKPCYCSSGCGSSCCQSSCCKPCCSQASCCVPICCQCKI
B4: KAT8 regulatory NSL complex subunit 1 (Homo sapiens), Q7Z3B3 (parent)
chain: MAAMAPALTDAAAEAHHIRFKLAPPSSTLSPGSAENNGNANILIAANGTKRKAIAAEDPSLDFRNNPTKEDLGKLQPLVASYLCSDVTSVPSKESLKLQGVFSKQTVLKSHPLLSQSYELRAELLGRQPVLEFSLENLRTMNTSGQTALPQAPVNGLAKKLTKSSTHSDHDNSTSLNGGKRALTSSALHGGEMGGSESGDLKGGMTNCTLPHRSLDVEHTTLYSNNSTANKSSVNSMEQPALQGSSRLSPGTDSSSNLGGVKLEGKKSPLSSILFSALDSDTRITALLRRQADIESRARRLQKRLQVVQAKQVERHIQHQLGGFLEKTLSKLPNLESLRPRSQLMLTRKAEAALRKAASETTTSEGLSNFLKSNSISEELERFTASGIANLRCSEQAFDSDVTDSSSGGESDIEEEELTRADPEQRHVPLRRRSEWKWAADRAAIVSRWNWLQAHVSDLEYRIRQQTDIYKQIRANKGLIVLGEVPPPEHTTDLFLPLSSEVKTDHGTDKLIESVSQPLENHGAPIIGHISESLSTKSCGALRPVNGVINTLQPVLADHIPGDSSDAEEQLHKKQRLNLVSSSSDGTCVAARTRPVLSCKKRRLVRPNSIVPLSKKVHRNSTIRPGCDVNPSCALCGSGSINTMPPEIHYEAPLLERLSQLDSCVHPVLAFPDDVPTSLHFQSMLKSQWQNKPFDKIKPPKKLSLKHRAPMPGSLPDSARKDRHKLVSSFLTTAKLSHHQTRPDRTHRQHLDDVGAVPMVERVTAPKAERLLNPPPPVHDPNHSKMRLRDHSSERSEVLKHHTDMSSSSYLAATHHPPHSPLVRQLSTSSDSPAPASSSSQVTASTSQQPVRRRRGESSFDINNIVIPMSVAATTRVEKLQYKEILTPSWREVDLQSLKGSPDEENEEIEDLSDAAFAALHAKCEEMERARWLWTTSVPPQRRGSRSYRSSDGRTTPQLGSANPSTPQPASPDVSSSHSLSEYSHGQSPRSPISPELHSAPLTPVARDTPRHLASEDTRCSTPELGLDEQSVQPWERRTFPLAHSPQAECEDQLDAQERAARCTRRTSGSKTGRETEAAPTSPPIVPLKSRHLVAAATAQRPTHR
partner: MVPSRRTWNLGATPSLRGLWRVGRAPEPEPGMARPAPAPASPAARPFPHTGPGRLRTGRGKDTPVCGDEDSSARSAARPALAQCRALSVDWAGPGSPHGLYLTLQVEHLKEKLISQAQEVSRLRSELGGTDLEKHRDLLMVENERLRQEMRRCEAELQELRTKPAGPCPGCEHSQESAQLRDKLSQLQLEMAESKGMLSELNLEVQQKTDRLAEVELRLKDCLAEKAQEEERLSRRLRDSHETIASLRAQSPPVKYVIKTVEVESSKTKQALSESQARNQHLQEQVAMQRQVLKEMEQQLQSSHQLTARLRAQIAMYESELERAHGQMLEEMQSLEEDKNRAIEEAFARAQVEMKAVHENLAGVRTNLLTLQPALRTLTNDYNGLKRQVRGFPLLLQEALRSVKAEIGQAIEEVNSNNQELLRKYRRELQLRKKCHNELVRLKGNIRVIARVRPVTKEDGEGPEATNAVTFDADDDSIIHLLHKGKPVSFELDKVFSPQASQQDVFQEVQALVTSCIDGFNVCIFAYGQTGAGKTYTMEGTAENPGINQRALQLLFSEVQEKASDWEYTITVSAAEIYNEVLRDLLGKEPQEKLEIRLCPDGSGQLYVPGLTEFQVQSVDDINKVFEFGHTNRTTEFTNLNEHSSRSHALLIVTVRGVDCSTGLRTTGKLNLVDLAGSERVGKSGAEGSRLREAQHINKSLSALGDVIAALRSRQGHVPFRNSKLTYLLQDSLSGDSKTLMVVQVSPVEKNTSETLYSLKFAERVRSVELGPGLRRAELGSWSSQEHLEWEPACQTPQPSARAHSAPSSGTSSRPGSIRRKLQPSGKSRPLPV
B5: Tuftelin-interacting protein 11 (Homo sapiens), Q9UBB9 (parent)
chain: MSLSHLYRDGEGRIDDDDDERENFEITDWDLQNEFNPNRQRHWQTKEEATYGVWAERDSDDERPSFGGKRARDYSAPVNFISAGLKKGAAEEAELEDSDDEEKPVKQDDFPKDFGPRKLKTGGNFKPSQKGFAGGTKSFMDFGSWERHTKGIGQKLLQKMGYVPGRGLGKNAQGIINPIEAKQRKGKGAVGAYGSERTTQSMQDFPVVDSEEEAEEEFQKELSQWRKDPSGSKKKPKYSYKTVEELKAKGRISKKLTAPQKELSQVKVIDMTGREQKVYYSYSQISHKHNVPDDGLPLQSQQLPQSGKEAKAPGFALPELEHNLQLLIDLTEQEIIQNDRQLQYERDMVVNLFHELEKMTEVLDHEERVISNLSKVLEMVEECERRMQPDCSNPLTLDECARIFETLQDKYYEEYRMSDRVDLAVAIVYPLMKEYFKEWDPLKDCTYGTEIISKWKSLLENDQLLSHGGQDLSADAFHRLIWEVWMPFVRNIVTQWQPRNCDPMVDFLDSWVHIIPVWILDNILDQLIFPKLQKEVENWNPLTDTVPIHSWIHPWLPLMQARLEPLYSPIRSKLSSALQKWHPSDSSAKLILQPWKDVFTPGSWEAFMVKNIVPKLGMCLGELVINPHQQHMDAFYWVIDWEGMISVSSLVGLLEKHFFPKWLQVLCSWLSNSPNYEEITKWYLGWKSMFSDQVLAHPSVKDKFNEALDIMNRAVSSNVGAYMQPGARENIAYLTHTERRKDFQYEAMQERREAENMAQRGIGVAASSVPMNFKDLIETKAEEHNIVFMPVIGKRHEGKQLYTFGRIVIYIDRGVVFVQGEKTWVPTSLQSLIDMAK
partner: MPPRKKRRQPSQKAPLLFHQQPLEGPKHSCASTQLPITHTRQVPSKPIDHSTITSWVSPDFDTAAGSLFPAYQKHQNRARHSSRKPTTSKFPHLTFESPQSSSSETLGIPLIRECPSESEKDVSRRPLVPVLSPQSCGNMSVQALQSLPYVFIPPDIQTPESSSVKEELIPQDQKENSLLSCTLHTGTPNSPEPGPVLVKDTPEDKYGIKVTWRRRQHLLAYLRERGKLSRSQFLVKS

Variants of: B1
Settings: with lmo3_human LMO3, Q8TAP4

| effect of a mutation on the interaction | Variant |
| --- | --- |
| disrupting interaction strength | Y204C |

Variants of: B2
Settings: with teanc_human TCEANC

| effect of a mutation on the interaction | Variant |
| --- | --- |
| with no effect | I288T |

Variants of: B3
Settings: with kra56_human KRTAP5-6, Q6L8G9

| effect of a mutation on the interaction | Variant |
| --- | --- |
| with no effect | A115T |
| with no effect | R74Q |

Variants of: B4
Settings: with kifc3_human KIFC3, Q9BVG8

| effect of a mutation on the interaction | Variant |
| --- | --- |
| disrupting interaction strength | K104T |

Variants of: B5
Settings: with rhno1_human RHNO1, Q9BSD3

| effect of a mutation on the interaction | Variant |
| --- | --- |
| with no effect | S688L |
